Eight substances from patent publication US11306156 can be followed below.

“And” between values parts separate entries of the source, which are not always exact repeats. Equal entries are not always repeated.

In assay [1] the target is D3H44 light chain Q124R_Q160K_T178R (Kabat) with N-terminal HA or FLAG tag. The assay is described as follows: LCCA, SPR read-out of light-chain tags; light-chain DNA 1:3 normalized to 1:1; competing light chain m25.
Assay [2] has as its target D3H44 light chain Q124R (Kabat) with N-terminal HA or FLAG tag. The assay is described as follows: LCCA, SPR read-out of light-chain tags; light-chain DNA 1:3 normalized to 1:1; competing light chain m24.
The target of assay [3] is D3H44 light chain Q124E_T178E (Kabat) with N-terminal HA or FLAG tag. The assay is described as follows: LCCA, SPR read-out of light-chain tags; light-chain DNA 1:3 normalized to 1:1; competing light chain m20.
Assay [4] addresses D3H44 light chain Q124E_Q160E_T178E (Kabat) with N-terminal HA or FLAG tag. The assay is described as above.
Assay [5] has as its target D3H44 light chain Q124E_Q160E_T180E (Kabat) with N-terminal HA or FLAG tag. The description is as above.
Assay [6] has as its target D3H44 light chain S131E (Kabat) with N-terminal HA or FLAG tag. The description is as above.
In assay [7] the target is D3H44 light chain Q124E_V133E_Q160F (Kabat) with N-terminal HA or FLAG tag. The assay is described as follows: LCCA, SPR read-out of light-chain tags; light-chain DNA 1:3 normalized to 1:1; competing light chain m23.
For assay [8], the target named is D3H44 light chain Q124R_Q160K_T178R (Kabat) with N-terminal HA or FLAG tag. In words: LCCA, SPR read-out of light-chain tags; light-chain DNA 1:3 normalized to 1:1; competing light chain m30.
The target is the same in assay [9]. The assay is described as follows: LCCA, SPR read-out of light-chain tags; light-chain DNA 1:3 normalized to 1:1; competing light chain m27.
Assay [10] has the same target. The assay is described as follows: LCCA, SPR read-out of light-chain tags; light-chain DNA 1:3 normalized to 1:1; competing light chain m17.
Assay [11] deals with D3H44 light chain Q124E_Q160E_T180E (Kabat) with N-terminal HA or FLAG tag. In words: LCCA, SPR read-out of light-chain tags; light-chain DNA 1:3 normalized to 1:1; competing light chain m16.
For assay [12] the target is unchanged. In words: LCCA, SPR read-out of light-chain tags; light-chain DNA 1:3 normalized to 1:1; competing light chain m26.
In assay [13] the target is D3H44 light chain T178R (Kabat) with N-terminal HA or FLAG tag. In words: LCCA, SPR read-out of light-chain tags; light-chain DNA 1:3 normalized to 1:1; competing light chain m19.
Assay [14] deals with D3H44 light chain Q124E_Q160E_T180E (Kabat) with N-terminal HA or FLAG tag. The assay is described as follows: LCCA, SPR read-out of light-chain tags; light-chain DNA 1:3 normalized to 1:1; competing light chain m18.
For assay [15], the target named is D3H44 light chain Q124E_T180E (Kabat) with N-terminal HA or FLAG tag. The assay is described as above.
The target in assay [16] is D3H44 light chain T178R (Kabat) with N-terminal HA or FLAG tag. The assay is described as follows: LCCA, SPR read-out of light-chain tags; light-chain DNA 1:3 normalized to 1:1; competing light chain m17.
Assay [17] addresses D3H44 light chain Q124K_T178R (Kabat) with N-terminal HA or FLAG tag. The assay is described as above.
For assay [18], the target named is D3H44 light chain Q124R_T178K (Kabat) with N-terminal HA or FLAG tag. The description is as above.
Assay [19] concerns the target D3H44 light chain Q124R_Q160K_T178R (Kabat) with N-terminal HA or FLAG tag. The assay is described as follows: LCCA, SPR read-out of light-chain tags; light-chain DNA 1:3 normalized to 1:1; competing light chain m22.
Assay [20] shares this target. In words: LCCA, SPR read-out of light-chain tags; light-chain DNA 1:3 normalized to 1:1; competing light chain m28.
For assay [21], the target named is D3H44 light chain Q124E_S131T_T178F_T180E (Kabat) with N-terminal HA or FLAG tag. The assay is described as follows: LCCA, SPR read-out of light-chain tags; light-chain DNA 1:3 normalized to 1:1; competing light chain m20.
The target of assay [22] is D3H44 light chain Q124E_S131T_T178Y_T180E (Kabat) with N-terminal HA or FLAG tag. Described as above.
In assay [23] the target is D3H44 light chain Q124E_S176L_T180E (Kabat) with N-terminal HA or FLAG tag. Described as above.
In assay [24] the target is D3H44 light chain Q124R_Q160K_T178R (Kabat) with N-terminal HA or FLAG tag. In words: LCCA, SPR read-out of light-chain tags; light-chain DNA 1:3 normalized to 1:1; competing light chain m29.
The target in assay [25] is D3H44 light chain Q124R_T178R (Kabat) with N-terminal HA or FLAG tag. The assay is described as follows: LCCA, SPR read-out of light-chain tags; light-chain DNA 1:3 normalized to 1:1; competing light chain m22.
Assay [26] concerns the target D3H44 light chain Q124E_Q160E_T180E (Kabat) with N-terminal HA or FLAG tag. In words: LCCA, SPR read-out of light-chain tags; light-chain DNA 1:3 normalized to 1:1; competing light chain m21.
Assay [27] has as its target D3H44 light chain Q124E_S131T_T178F_T180E (Kabat) with N-terminal HA or FLAG tag. The assay is described as above.
In assay [28] the target is D3H44 light chain Q124R_T178R (Kabat) with N-terminal HA or FLAG tag. The assay is described as follows: LCCA, SPR read-out of light-chain tags; light-chain DNA 1:9 normalized to 1:1; competing light chain m17.
Assay [29] has as its target D3H44 light chain Q124E_Q160E_T180E (Kabat) with N-terminal HA or FLAG tag. In words: LCCA, SPR read-out of light-chain tags; light-chain DNA 1:9 normalized to 1:1; competing light chain m21.
Assay [30] has as its target D3H44 light chain Q124R_T178R (Kabat) with N-terminal HA or FLAG tag. In words: LCCA, SPR read-out of light-chain tags; light-chain DNA 1:3 normalized to 1:1; competing light chain m17.
Assay [31] addresses D3H44 Fab heavy chain L143E_K145T_S188L. The assay is described as follows: LCCA, L1:L2 DNA 1:3 normalised to 1:1, SPR of light chain tags; competitor m33.
The target of assay [32] is D3H44 Fab heavy chain L143A_Q179K. Described as above.
For assay [33], the target named is D3H44 Fab heavy chain L143E_K145T. In words: LCCA, L1:L2 DNA 1:3 normalised to 1:1, SPR of light chain tags; competitor m32.

For the substance “D3H44 Fab heavy chain L143E_K145T (Kabat) with C-terminal ABD2-His6 tag”, the H1L1:H1L2 normalized median ratio in assay [1] was found to be 59%; in assay [2] it was 85%; in assay [3], 41%; in assay [4] it was 41%; in assay [5], 28%; in assay [6], 53%. For the same substance, the H1L1:H1L2 normalized median ratio is 15% in [7], 47% in assay [8], 59% in assay [9] and 72% in [10]. Further, the H1L1:H1L2 normalized median scalar value ln(r1/f1) is 0.37 in [1]; 1.75 in assay [2]; -0.14 in assay [8]; 0.36 in assay [9]; 0.95 and 0.96 in assay [10].
Consider “D3H44 Fab heavy chain L143E_K145T_Q179E (Kabat) with C-terminal ABD2-His6 tag”, for which the H1L1:H1L2 normalized median ratio in assay [11] is 12% and 17%; in assay [12], 17%; in assay [5] it was 16%; in assay [13] it was 60%; in [14], 11%; in assay [15], 40%. Further, the H1L1:H1L2 normalized median ratio in [16] is 89%; in assay [17], 88%; in assay [10] it was 84%; in assay [18] it was 83%. Further, the H1L1:H1L2 normalized median scalar value ln(r1/f1) in [13] was 0.41; in assay [16] it was 2.14; in [17], 2; in assay [10], 1.65; in assay [18] it was 1.62.
In the case of “D3H44 Fab heavy chain L143E_K145T_S188L (Kabat) with C-terminal ABD2-His6 tag”, the H1L1:H1L2 normalized median ratio in assay [19] is 59%; in assay [20], 57%; in [21], 41%; in assay [22], 26%; in [23], 43%; in assay [24], 74%. Further, the results for the H1L1:H1L2 normalized median scalar value ln(r1/f1) in assay [19], in assay [20] and in [24] were 0.37, 0.28 and 1.03, respectively.
On to “D3H44 Fab heavy chain L143R (Kabat) with C-terminal ABD2-His6 tag”, for which the H2L2:H2L1 normalized median ratio in assay [2] is 17%; in [7] it was 83%.
Consider “D3H44 Fab heavy chain Q179R (Kabat) with C-terminal ABD2-His6 tag”, for which the H2L2:H2L1 normalized median ratio in assay [19] was 4%; in assay [21] it was 96%; in assay [6] it was 97%; in assay [8], 3%.
Consider “D3H44 Fab heavy chain S186R (Kabat) with C-terminal ABD2-His6 tag”, for which the H2L2:H2L1 normalized median ratio amounted to 82% in [11]; 10% in assay [25]; 10% in assay [19]; 81% in [26]; 90% in assay [27]; 5% in assay [1]. The H2L2:H2L1 normalized median ratio in [12] worked out at 83%; in [20], 5%; in assay [3] it was 96%; in assay [4] it was 95%; in assay [5], 80%; in assay [21], 90%. Besides, the H2L2:H2L1 normalized median ratio in assay [22] was determined as 88%; in [23], 95%; in [13] it was 4%; in assay [9], 4%; in [14], 72%; in assay [15] it was 96%. Besides, the H2L2:H2L1 normalized median ratio in [28] was found to be 14%; in assay [29] it was 86%; in assay [16] it was 28%; in assay [17], 18%; in assay [30] it was 19%; in [10], 20%. Besides, the H2L2:H2L1 normalized median ratio in [18] turned out to be 17%; in [24] it was 12%.
As to D3H44 light chain Q124E_V133Y_T180E, the H2L2:H2L1 normalized median ratio in assay [31] was 44%. In assay [32], the H1L1:H1L2 normalized median ratio worked out at 96% and the H1L1:H1L2 normalized median scalar value ln(r1/f1) was found to be 3.13.
In assay [33], D3H44 light chain Q124R_T178R showed an H1L1:H1L2 normalized median scalar value ln(r1/f1) of -0.16.
